Patent US8889615B2, “Methods for promoting epithelialization and healing of chronic wounds” (New York University, priority 2009, dated 2014)

Test system: Primary human keratinocytes
Test: Keratinocyte migration, wound scratch assay
Assay type: cell-based
Conditions: 20 μmol/L LiCl or 25 ng/ml of EGF, 24 and 48 hours
Experimental: Primary human keratinocytes were grown to 80% confluency. Twenty-four hours before the experiment cells were transferred to basal KBM medium (Life Technologies, Inc., Grand Island, N.Y.). Before the scratch, cells were treated with 8 μg/ml mitomycin C (ICN, Irvine, Calif.) for 1 hour and washed with basal media. Scratches were performed as previously described (Lee, et al., J Mol. Biol., 345:1083-1097 (2005)). Cells were incubated with 20 μmol/L LiCl or 25 ng/ml of EGF for 24 and 48 hours, rephotographed, and cell migration was quantified as previously described (Lee, et al., J. Mol. Biol., 345:1083-1097 (2005); Zavadil. et al., EMBO J., 23:1155-1165 (2004)). Thirty measurements were taken for each experimental condition and distance coverage by cells moving into the scratch wound area was quantified. Three images were analyzed per condition, per time point, and averages and standard deviations were calculated.

B1: EGF: epidermal growth factor, promotes keratinocyte migration (protein, UniProt P01133 23-1207, looked up)
Pro-epidermal growth factor: PQHWSCPEGTLAGNGNSTCVGPAPFLIFSHGNSIFRIDTEGTNYEQLVVDAGVSVIMDFHYNEKRIYWVDLERQLLQRVFLNGSRQERVCNIEKNVSGMAINWINEEVIWSNQQEGIITVTDMKGNNSHILLSALKYPANVAVDPVERFIFWSSEVAGSLYRADLDGVGVKALLETSEKITAVSLDVLDKRLFWIQYNREGSNSLICSCDYDGGSVHISKHPTQHNLFAMSLFGDRIFYSTWKMKTIWIANKHTGKDMVRINLHSSFVPLGELKVVHPLAQPKAEDDTWEPEQKLCKLRKGNCSSTVCGQDLQSHLCMCAEGYALSRDRKYCEDVNECAFWNHGCTLGCKNTPGSYYCTCPVGFVLLPDGKRCHQLVSCPRNVSECSHDCVLTSEGPLCFCPEGSVLERDGKTCSGCSSPDNGGCSQLCVPLSPVSWECDCFPGYDLQLDEKSCAASGPQPFLLFANSQDIRHMHFDGTDYGTLLSQQMGMVYALDHDPVENKIYFAHTALKWIERANMDGSQRERLIEEGVDVPEGLAVDWIGRRFYWTDRGKSLIGRSDLNGKRSKIITKENISQPRGIAVHPMAKRLFWTDTGINPRIESSSLQGLGRLVIASSDLIWPSGITIDFLTDKLYWCDAKQSVIEMANLDGSKRRRLTQNDVGHPFAVAVFEDYVWFSDWAMPSVMRVNKRTGKDRVRLQGSMLKPSSLVVVHPLAKPGADPCLYQNGGCEHICKKRLGTAWCSCREGFMKASDGKTCLALDGHQLLAGGEVDLKNQVTPLDILSKTRVSEDNITESQHMLVAEIMVSDQDDCAPVGCSMYARCISEGEDATCQCLKGFAGDGKLCSDIDECEMGVPVCPPASSKCINTEGGYVCRCSEGYQGDGIHCLDIDECQLGEHSCGENASCTNTEGGYTCMCAGRLSEPGLICPDSTPPPHLREDDHHYSVRNSDSECPLSHDGYCLHDGVCMYIEALDKYACNCVVGYIGERCQYRDLKWWELRHAGHGQQQKVIVVAVCVVVLVMLLLLSLWGAHYYRTQKLLSKNPKNPYEESSRDVRSRRPADTEDGMSSCPQPWFVVIKEHQDLKNGGQPVAGEDGQAADGSMQPTSWRQEPQLCGMGTEQGCWIPVSSDKGSCPQVMERSFHMPSYGTQTLEGGVEKPHSLLSANPLWQQRALDPPHQMELTQ
modifications: Pro-epidermal growth factor
notes: epidermal growth factor, promotes keratinocyte migration
keratinocyte migration: promoted
